The values that follow come from the nanobody polyreactivity screen of Harvey et al. (2022).

The data set can be described thus: yeast display, Sf9 membrane polyspecificity reagent, FACS + sequencing; frameworks hold sequencing errors. A digest of the protocol: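 Genes from sorted yeast were amplified by colony PCR, read by MiSeq 2 × 250 sequencing and filtered on CDR length. These cells carried a synthetic nanobody library in Saccharomyces cerevisiae BJ5465 and were sorted by FACS into low and high (top ~1%) gates on anti-HA and streptavidin fluorescence. Polyreactivity is labelled according to the gate of origin.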
As for “QVQLVESGGGLVQAGGSLRLSCAASGRTFYYYAMGWYRQAPGKEREFVAAITTRGGSTYYADSVKGRFTISRDNAKNTVYLQMNSLKPEDTAVYYCAARSYYQGGYYYWGQGTQVTVSS”, the “polyreactivity (PSR sort gate)” value is on record as “high polyreactivity”.
On to “QVQLVESGGGLVQAGGSLRLSCAASGRTFYYYAMGWYRQAPGKERELVAAISSRGGSTYYADSVKGRFTISRDNAKNTVYLQMNSLKPEDTAVYYCAAERYFVLYRYYSYAYYYWGQGTQVTVSS”, for which the “polyreactivity (PSR sort gate)” value is reported as “high polyreactivity”.
Turning to “QVQLVESGGGLVQAGGSLRLSCAASGRTFYYYAMGWYRQAPGKERELVAAISWSGGRTYYADSVKGRFTISRDNAKNTVYLQMNSLKPEDTAVYYCAASSTGYGGSTYYYWGQGTQVTVSS”, the “polyreactivity (PSR sort gate)” value was “low polyreactivity”.
“QVQLVESGGGLVQAGGSLRLSCAASGRTFYYYAMGWYRQAPGKERELVAGISWSAGSTYYADSVKGRFTISRDYAKNTVYLQMNSLKPEDTAVYYCAARYWQSYRSQVTHSSTLDYWGQGTQVTVSS”: the “polyreactivity (PSR sort gate)” value was “low polyreactivity”.
With “QVQLVESGGGLVQAGGSLRLSCAASGRTFYYYAMGWYRQAPGKERELVASISWSGGSTYYADSVKGRFTISRDNAKNTVYLQMNSLKPEDTAVYYCNAQYHTYRWLYAVYLSGDYWGQGTQVTVSS”, the “polyreactivity (PSR sort gate)” value is “low polyreactivity”.
As to “QVQLVESGGGLVQAGGSLRLSCAASGRTFYYYVMGWYRQAPGKEREFVAAITSGGSTNYADSVKGRFTISRDNAKNTVYLQMNSLKPEDTAVYYCAAGKYTIYGYWTPYDYWGQGTQVTVSS”, the “polyreactivity (PSR sort gate)” value was “low polyreactivity”.
As for “QVQLVESGGGLVQAGGSLRLSCAASGRTGKNAMGWYRQAPVKERELVAAIRYNGGSTYYADSVKGRFTISRDNAKNTVYLQMNSLKPEDTAVYYCAAASRRHNGSAFNYWGQGTLVTVSS”, the “polyreactivity (PSR sort gate)” value is on record as “high polyreactivity”.
With “QVQLVESGGGLVQAGGSLRLSCAASGRTGVNAMGWYRQAPGKERGMVAAINTSVGRTYYADSVKGRFTISRDNAKNTVYLQMNSLKPEDTAVYYCNTDRLGAARYDYWGQGTQVTVSS”, the “polyreactivity (PSR sort gate)” value is “low polyreactivity”.
On to “QVQLVESGGGLVQAGGSLRLSCAASGRTICRNVMGWYRQAPGKERELVAAISRSGGSTYYADSVKGRFTISRDNAKNTVYLQMNSLKPEVTAVYYCAAYSVGDYYWGQGTQVTVSS”, for which the “polyreactivity (PSR sort gate)” value was “high polyreactivity”.
For “QVQLVESGGGLVQAGGSLRLSCAASGRTIDDYDMGWYRQAPGKERELVADINSGGSTYYADSVKGRFTISRDNAKNTVYLQMNSLKPEDTAVYYCAATLVPWPYTGPRYGYWGQGTQVTVSS” the value was “high polyreactivity”.
In the case of “QVQLVESGGGLVQAGGSLRLSCAASGRTIDHYAMGWYRQAPGKERELVAAISTTGGSTYYADSVKGRFTISRDNAKNTVYLQMNSLKPEDTAVYYCAARGLRTGGYWGQGTQVTVSS”, the “polyreactivity (PSR sort gate)” value is given as “high polyreactivity”.
As for “QVQLVESGGGLVQAGGSLRLSCAASGRTIGAYAMGWYRQAPGKEREFVAAITFGGGPTYYADSVKGRFTISRDNAKNTVYLQMNSLKPEDTAVYYCAKRIDLSLPYARYDYWGQVTQVTVSS”, the “polyreactivity (PSR sort gate)” value is reported as “low polyreactivity”.
Take “QVQLVESGGGLVQAGGSLRLSCAASGRTIGGYAMGWYRQAPGKEREMVAAINYSGGTTYYADSVKGRFTISRDNAKNTVYLQMNSLKPEDTAVYYCIRDYHSESGNPGYQYGYWGQGTQVTVSS”: the “polyreactivity (PSR sort gate)” value is “high polyreactivity”.
In the case of “QVQLVESGGGLVQAGGSLRLSCAASGRTIGINAMGWYRQAPGKERELVAVISFGDGGTYYADSVKGRFTISRDNAKNTVYLQMNSLKPEDTEVYYCATDYQSTSVWGGHFVINPYDYWGQGTQVTVSS”, the “polyreactivity (PSR sort gate)” value is “low polyreactivity”.
Consider “QVQLVESGGGLVQAGGSLRLSCAASGRTIGVYAMGWYRQAPGKERELVAAISWSGGTTYYADSVKGRFTISRDNAKNTVYLQMNSLKPEDTAVYYCAADSYTEVDYWGQGSQVTVSS”, for which the “polyreactivity (PSR sort gate)” value was “low polyreactivity”.
For the sequence “QVQLVESGGGLVQAGGSLRLSCAASGRTIKYYAMGWDRQAPGKERELVAVISWSGGSTYYADSVKGRFTISRDNAKNTVYLQMISLKPEDTAVYYCNAYVYAYYAGYNYWGQGTQVTVSS”, the “polyreactivity (PSR sort gate)” value is listed as “high polyreactivity”.
Take “QVQLVESGGGLVQAGGSLRLSCAASGRTILVYAMGWYRQAPGKERELVAAISRSGGSTYYADSVKGRFTISRDNAKNTVYLQMNSLKPEDTAVYYCAAKNTGRYYWGQGTQVTVSS”: the “polyreactivity (PSR sort gate)” value was “high polyreactivity”.
In the case of “QVQLVESGGGLVQAGGSLRLSCAASGRTINPYGMGWYRPAPGKERELVADINSGGITNYADSVKGRFTISRDNAKNTVYLQMNSLKPEDTAVYYCNADGFIQPDDWRNFAGDYWGQGTQVTVSS”, the “polyreactivity (PSR sort gate)” value is recorded as “low polyreactivity”.
For the sequence “QVQLVESGGGLVQAGGSLRLSCAASGRTIRFNAMGWYRQAQGKESELVAAISFSGGNTYYADSVKGRFTISRDNAKNTVYIQMNSLKPDDTAVYYCAARFTYRYYNYLKYDYWGKGTQVTVSS”, the “polyreactivity (PSR sort gate)” value was “high polyreactivity”.
On to “QVQLVESGGGLVQAGGSLRLSCAASGRTIRGYTMGWYRQSAGTERELVATITKRGGSTTYADSVKGRFTISRDNAKNTVYLQMNSLKPEDTAVYYCNKDTITSTLTPYTSWFGYWGQGTQVTVSS”, for which the “polyreactivity (PSR sort gate)” value is “high polyreactivity”.
As for “QVQLVESGGGLVQAGGSLRLSCAASGRTIRRYAMGWYRQAPGKERELVAAISYSGGSTYYADSVKGRFTISRDNAKNTVYLQMNSLKPEDTAVYYCAARYLGKKYYYWGQGTQVTVSS”, the “polyreactivity (PSR sort gate)” value was “high polyreactivity”.
For “QVQLVESGGGLVQAGGSLRLSCAASGRTIRSYAMGWYRQAPGKERELVAAITGSGGRTYYADSVKGRFTISRDNAKNTVYLQLNSLKPEDTAVYYCAARLRGSYDYWGQGTQVTVSS” the value was “high polyreactivity”; for “QVQLVESGGGLVQAGGSLRLSCAASGRTIRWNAMGWYRQAPGKERELVAAITSRGGSTYYADSVKGRFTISRDNAKNTVYLQMNSLKPEDTAVYYCAKQPKPPPVTGYDYWGQGTQVTVSS”, “high polyreactivity”.
Take “QVQLVESGGGLVQAGGSLRLSCAASGRTIRWYTMGGYRQAPGKEMELVAGISSSGGSTYYADSVKGRFTISRDNAMNTVYLQMNSLKPEDTAVYYCNAQALRLFWRYDYWGQGTQVTVSS”: the “polyreactivity (PSR sort gate)” value was “low polyreactivity”.
On to “QVQLVESGGGLVQAGGSLRLSCAASGRTIRYYAMGWYRQAPGKERELVAAISWNGANTYYADSVKGRFTISRDNAKNTVYLQMNSLKPEDTAVYYCAATYYRWKGYDYWGQGTQVTVSS”, for which the “polyreactivity (PSR sort gate)” value is reported as “high polyreactivity”.
For the sequence “QVQLVESGGGLVQAGGSLRLSCAASGRTISFNTMAWYRQAPGKERDLVAGIERGGSTNYADSVKVRFTISRDNAKNTVYFQMNSLKPEDTAVYYCAARNLRYRYRNYDYWGQGTQVTVSS”, the “polyreactivity (PSR sort gate)” value is reported as “high polyreactivity”.
As for “QVQLVESGGGLVQAGGSLRLSCAASGRTISKNTMGWYRQAPGKERELVAAISSSGGSTNYADSVKGRFTISRDNAKNTVYLQMNSLKPEETAVYYCAADPWRFRSRPVNYWGQGTQVSVSS”, the “polyreactivity (PSR sort gate)” value is “high polyreactivity”.
For “QVQLVESGGGLVQAGGSLRLSCAASGRTISVYGMGWYRQAPGKERELVASITWRGGTTYYADSVKGRFTISRDNAKNTVYLQMNSLKPEDTAVYYCAAYWPYTTYRYRYDYWGQGTQVTVSS” the value was “high polyreactivity”.
For the sequence “QVQLVESGGGLVQAGGSLRLSCAASGRTISYAMGWYRQAPGKEREMVAAIRYRGGSTYYADSVKGRFTISRDNAKNTVYLQMNSLKPEDTAVYYCAAQDSYTPPILFRRGYLRYDYWGQGTQVTVSS”, the “polyreactivity (PSR sort gate)” value was “low polyreactivity”.
For the sequence “QVQLVESGGGLVQAGGSLRLSCAASGRTITRNALGWYRQAPGKERELVASINRGGSTNYADSVKGRFTISRDNAKNTDYLQMNSLNPEDTAVYYCYYHVYEQYFWVEYDYWGQGTQVTVSS”, the “polyreactivity (PSR sort gate)” value is reported as “high polyreactivity”.
For “QVQLVESGGGLVQAGGSLRLSCAASGRTITRNAMGWYRQAPGKERELVAAITTTGGSTYYADYVKGRFTISRDNAKNTVYLQMNSLKPEDNAVYYCNADWVGPFRRATNITTYFGYDYWGQGTQVTVSS” the value was “low polyreactivity”; for “QVQLVESGGGLVQAGGSLRLSCAASGRTIVRYAMGWYRQAPGKERDLVAAITARGGSTYYADSVKGRFTISRDNAKNTVYLQMNRLKPEDTEVYYCATYYSGSLGRYYYWGKGTQVTVSS”, “high polyreactivity”.
In the case of “QVQLVESGGGLVQAGGSLRLSCAASGRTIVVYGMGWYRQAPGKERELVATINYGGNTYYADSVKGRFTISRDNAKNTVYLQLNSLKPEDTAVYYCATRSYARYYTYDYWGQGTQVTVSS”, the “polyreactivity (PSR sort gate)” value is reported as “low polyreactivity”.
For “QVQLVESGGGLVQAGGSLRLSCAASGRTIWWYAMGWYRQAPGKERELVAAITWIGGSTYYADSVKGRFTISRDNAKNTVYLKMNSLKPEDTAVYFCNVVYYGRTWVPYEWEYDYWGQGTQVTVSS” the value was “low polyreactivity”; for “QVQLVESGGGLVQAGGSLRLSCAASGRTIYLNAMGWYRQAPGKERELVAAISRNGGSTYYADSVKGRFTISRDNAKNTVYLQMNSLKPEDTAVYYCAAEWDDGRSWYWYYLVGFEYWGQGTQVTVSS”, “high polyreactivity”.
For “QVQLVESGGGLVQAGGSLRLSCAASGRTIYRYAMGWYRQAPGKERELVAAISRRGGSTYYADSVKGRFTISRDNAKNTVYLHMNSLKPEDSAVYYCNAPFGDVYRTDDYWGQGTQVTVSS” the value was “high polyreactivity”; for “QVQLVESGGGLVQAGGSLRLSCAASGRTIYSNAMGGYRQAPGKERELVAAITGSSGSTYYADSVKGRFTISRDNAKNTVYLQMNSLKPEDTAVYYCAASCYCSLVRQLRLRGQGTQVTVSS”, “low polyreactivity”; for “QVQLVESGGGLVQAGGSLRLSCAASGRTIYYNGMGWDRQAPGKERELVAAITSGGTTSYADSVKGRFTISRDNAKNTVYLQMNSLKPEDTAVYYCARVTDGVVYEYDYWGQGTQVTVSS”, “low polyreactivity”.
For “QVQLVESGGGLVQAGGSLRLSCAASGRTIYYYAMGWYRQAPGKERELVAAINYGSGGSTYYADSVKGRFTISRDNAKNTVYLQMNSLKPEDTAVYYCNARRQDWPRKAYGYWGQGTQVTVSS” the value was “high polyreactivity”.
As to “QVQLVESGGGLVQAGGSLRLSCAASGRTIYYYAMGWYRQAPGKERELVAAITSGGSTYYADSVKGRFTISRDNEKNTVYLQMNSLKPEDTAVYYCAARPLEGWHYGSWGQGTQVTVSS”, the “polyreactivity (PSR sort gate)” value is listed as “low polyreactivity”.
